Experimental data reported in patent US7332335.

Target: p53, P04637
Sequence (P04637 whole entry, looked up): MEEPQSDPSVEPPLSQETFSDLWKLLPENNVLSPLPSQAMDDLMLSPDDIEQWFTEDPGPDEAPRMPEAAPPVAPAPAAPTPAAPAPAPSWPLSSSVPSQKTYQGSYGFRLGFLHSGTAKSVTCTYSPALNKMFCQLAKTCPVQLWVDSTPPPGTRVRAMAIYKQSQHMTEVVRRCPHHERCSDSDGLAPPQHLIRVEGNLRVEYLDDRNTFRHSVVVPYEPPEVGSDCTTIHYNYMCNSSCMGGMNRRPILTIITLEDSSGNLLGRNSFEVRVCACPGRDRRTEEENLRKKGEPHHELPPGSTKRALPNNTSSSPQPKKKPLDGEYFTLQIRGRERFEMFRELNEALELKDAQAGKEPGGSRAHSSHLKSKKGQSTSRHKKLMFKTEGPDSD

B1: recombinant PP5 (protein phosphatase 5) (protein)
chain: MAMAEGERTECAEPPRDEPPADGALKRAEELKTQANDYFKAKDYENAIKFYSQAIELNPSNAIYYGNRSLAYLRTECYGYALGDATRAIELDKKYIKGYYRRAASNMALGKFRAALRDYETVVKVKPHDKDAKMKYQECNKIVKQKAFERAIAGDEHKRSVVDSLDIESMTIEDEYSGPKLEDGKVTISFMKELMQWYKDQKKLHRKCAYQILVQVKEVLSKLSTLVETTLKETEKITVCGDTHGQFYDLLNIFELNGLPSETNPYIFNGDFVDRGSFSVEVILTLFGFKLLYPDHFHLLRGNHETDNMNQIYGFEGEVKAKYTAQMYELFSEVFEWLPLAQCINGKVLIMHGGLFSEDGVTLDDIRKIERNRQPPDSGPMCDLLWSDPQPQNGRSISKRGVSCQFGPDVTKAFLEENNLDYIIRSHEVKAEGYEVAHGGRCVTVFSAPNYCDQMGNKASYIHLQGSDLRPQFHQFTAVPHPNVKPMAYANTLLQLGMM
- dephosphorylation of p53 in vitro: recombinant PP5 can dephosphorylate p53 in vitro
